Five molecules from article PMC6920965, “Plant Polyphenols Inhibit Functional Amyloid and Biofilm Formation in Pseudomonas Strains by Directing Monomers to Off-Pathway Oligomers” (Biomolecules, 2019) can be followed below.

For assay [1], the target named is T1, FapC (FapC-UK4) (Pseudomonas fluorescens, UniProt P0DXF5).
T1 construct: His-tagged FapC wt, 226-residue mature protein without the 24-residue signal peptide
T1 sequence (P0DXF5 25-250): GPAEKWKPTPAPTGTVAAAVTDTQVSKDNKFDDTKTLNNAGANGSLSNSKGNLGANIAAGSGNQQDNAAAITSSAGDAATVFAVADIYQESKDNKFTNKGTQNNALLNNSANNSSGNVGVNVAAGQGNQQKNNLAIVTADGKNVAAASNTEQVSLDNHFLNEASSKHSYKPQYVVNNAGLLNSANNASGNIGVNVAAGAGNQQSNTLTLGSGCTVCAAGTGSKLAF
In words: peptide array and SDS-PAGE blot with NBT staining; supported by ThT fibrillation, SEC and SAXS. It is filed as binding.

The target of the next assay is FapC-PAO1 (Pseudomonas aeruginosa, UniProt Q9I2F0). In words: ThT fibrillation assay ([…] FapC-PAO1, […] polyphenol) and SDS-PAGE. The class given is biochemical.
Sequence of FapC-PAO1 (Q9I2F0 25-340): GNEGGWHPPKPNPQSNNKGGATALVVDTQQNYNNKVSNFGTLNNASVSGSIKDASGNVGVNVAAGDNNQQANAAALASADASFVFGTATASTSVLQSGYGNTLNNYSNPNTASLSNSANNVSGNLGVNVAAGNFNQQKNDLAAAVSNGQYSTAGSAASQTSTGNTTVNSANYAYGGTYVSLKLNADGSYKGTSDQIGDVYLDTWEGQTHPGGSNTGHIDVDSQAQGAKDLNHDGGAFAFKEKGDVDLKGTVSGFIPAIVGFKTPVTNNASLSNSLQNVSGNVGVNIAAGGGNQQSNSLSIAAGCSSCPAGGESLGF
Assay [2] deals with FapC-UK4 mutant lacking all three imperfect repeats (∆R1R2R3) (Pseudomonas sp. UK4). In words: SAXS; freshly desalted sample without TCEP; aggregation number (Nagg) by indirect Fourier transformation.
For assay [3] the target is unchanged. In words: SAXS; oligomers formed in the presence of PGG and purified by SEC; Nagg by indirect Fourier transformation; core-shell model.
The target in assay [4] is T2, FapC (FapC-UK4) (Pseudomonas fluorescens, UniProt P0DXF5).
T2 construct: His-tagged FapC wt, mature protein (226 residues)
In words: ThT fibrillation assay of purified FapC; supported by CD, ATR-FTIR, SEC and SAXS of oligomers. It is filed as biochemical.

The target of assay [5] is FapC from Pseudomonas sp. UK4, wild type (Pseudomonas sp. UK4). In words: SAXS; freshly desalted sample without TCEP; aggregation number (Nagg) by indirect Fourier transformation.
Assay [6] shares this target. In words: SAXS; oligomers formed in the presence of PGG and purified by SEC; Nagg by indirect Fourier transformation; core-shell model.
For assay [7] the target is unchanged. In words: SAXS; oligomers formed in the presence of EGCG and purified by SEC; Nagg by indirect Fourier transformation; core-shell model.
Assay [8] has the same target. In words: SAXS; oligomers formed in the presence of baicalein and purified by SEC; Nagg by indirect Fourier transformation; core-shell model.

In the case of `O=C(O[C@@H]1Cc2c(O)cc(O)cc2O[C@@H]1c1cc(O)c(O)c(O)c1)c1cc(O)c(O)c(O)c1` [EGCG, epigallocatechin gallate], the “peptide array and SDS-PAGE blot with NBT staining; supported by ThT fibrillation” value on FapC (FapC-UK4) [1] was “The intensity of EGCG binding varied significantly across the probed peptides (Figure 6C), showing particular affinity for regions”. Besides, at FapC-PAO1, the “ThT fibrillation assay (30 μM FapC-PAO1, 100 μM polyphenol) and SDS-PAGE” value (shortened to “ThT fibrillation assay”) was “PGG, EGCG, and baicalein keep FapC monomeric or lead to off-pathway oligomers (Figure 4B)”.

Turning to `O=c1cc(-c2ccccc2)oc2cc(O)c(O)c(O)c12` [baicalein], the “ThT fibrillation assay” value on FapC-PAO1 is “PGG, EGCG, and baicalein keep FapC monomeric or lead to off-pathway oligomers (Figure 4B)”.

Turning to “FapC-UK4 mutant lacking all three imperfect repeats (∆R1R2R3) (domain or fragment)”, the stoichiometry N in [2] amounted to 2.7; in assay [3] it was 4.7.

Molecule `O=C(OC[C@H]1O[C@@H](OC(=O)c2cc(O)c(O)c(O)c2)[C@H](OC(=O)c2cc(O)c(O)c(O)c2)[C@@H](OC(=O)c2cc(O)c(O)c(O)c2)[C@@H]1OC(=O)c1cc(O)c(O)c(O)c1)c1cc(O)c(O)c(O)c1` [PGG, penta-O-galloyl-β-D-glucose] displayed an IC50 at FapC (FapC-UK4) [4] of roughly 26 µM. For the same molecule, the “ThT fibrillation assay” value at FapC-PAO1 was “PGG, EGCG, and baicalein keep FapC monomeric or lead to off-pathway oligomers (Figure 4B)”.

In the case of “FapC from Pseudomonas sp. UK4, wild type (natural protein)”, the stoichiometry N in assay [5] was determined as 4.4; in [6], 7.6; in assay [7], 6.7; in assay [8], 6.7.
